Experimental data as given in article PMC3107930.
pKd: −log10 of the molar value.

Target: motavizumab Fab
Assay: SPR

## RSV F peptide (motavizumab epitope peptide)
  pKd: 6.62
